We go through three molecules from publication PMC4353692, “Structure of the Vacuolar H^+-ATPase Rotary Motor Reveals New Mechanistic Insights” (Structure(London, England:1993), 2015).

T1: Manduca sexta V-ATPase subunit H (Manduca sexta (endogenous in midgut), UniProt Q9U5N0 1-475)
T1 construct: V-type proton ATPase subunit H, Manduca sexta; source: purified from M. sexta midgut, as part of the V-ATPase holoenzyme
T1 sequence (looked up): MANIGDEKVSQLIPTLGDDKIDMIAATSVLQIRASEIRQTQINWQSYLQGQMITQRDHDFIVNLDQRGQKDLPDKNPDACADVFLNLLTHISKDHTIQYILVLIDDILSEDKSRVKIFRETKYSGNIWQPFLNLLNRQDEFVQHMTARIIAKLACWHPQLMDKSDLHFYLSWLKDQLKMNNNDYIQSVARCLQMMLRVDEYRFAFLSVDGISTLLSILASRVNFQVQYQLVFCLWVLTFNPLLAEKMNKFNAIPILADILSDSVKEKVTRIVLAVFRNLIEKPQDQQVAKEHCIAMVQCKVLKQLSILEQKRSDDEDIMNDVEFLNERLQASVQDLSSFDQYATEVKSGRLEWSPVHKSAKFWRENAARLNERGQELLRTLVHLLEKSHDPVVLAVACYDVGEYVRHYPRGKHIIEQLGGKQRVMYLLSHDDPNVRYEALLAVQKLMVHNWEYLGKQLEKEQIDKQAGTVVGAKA

B1: Manduca sexta V-ATPase subunit E (natural protein, Manduca sexta (endogenous in midgut), UniProt P31402 1-226, looked up)
chain: MALSDADVQKQIKHMMAFIEQEANEKAEEIDAKAEEEFNIEKGRLVQQQRLKIMEYYEKKEKQVELQKKIQSSNMLNQARLKVLKVREDHVRNVLDEARKRLAEVPKDIKLYSDLLVTLIVQALFQLVEPTVTLRVRQADKALVESLLGRAQQDYKAKIKKDVVLKIDNENFLPPDTCGGIELIAAKGRIKISNTLESRLELIAQQLLPEIRNALFGRNPNRKFTD
notes: V-type proton ATPase subunit E, Manduca sexta; Three copies in the holoenzyme (stator filaments S1, S2, S3); also called part of the EG stator filaments S1-S3; source: purified from M. sexta midgut, as part of the V-ATPase holoenzyme
B2: Manduca sexta V-ATPase subunit D (natural protein)
chain: not shown
notes: V-type proton ATPase subunit D, Manduca sexta; also called rotor axle; central axle; source: purified from M. sexta midgut, as part of the V-ATPase holoenzyme
B3: Manduca sexta V-ATPase subunit G (natural protein, Manduca sexta (endogenous in midgut), UniProt Q25532 1-117, looked up)
chain: MASQTHGIQQLLAAEKRAAEKVSEARKRKAKRLKQAKEEAQDEVEKYRQERERQFKEFEAKHMGTREGVAAKIDAETRIKIDEMNKMVQTQKEAVIKDVLNLVYDIKPELHINYRVV
notes: V-type proton ATPase subunit G, Manduca sexta; Three copies in the holoenzyme (stator filaments S1, S2, S3); also called part of the EG stator filaments S1-S3; source: purified from M. sexta midgut, as part of the V-ATPase holoenzyme

Common to all, as to test: cryo-EM structure; M. sexta V-ATPase holoenzyme purified from tissue, in C12E10; 9.4 Å reconstruction (gold standard FSC 0.143); homology models of the subunits flexibly fitted by MDFF; side chains not resolved
Holding throughout (conditions): both partners purified

In assay [1] the target is T1, Manduca sexta V-ATPase subunit H.
The target in assay [2] is T2, Manduca sexta V-ATPase subunit C (Manduca sexta (endogenous in midgut), UniProt Q9U5N1 1-385).
T2 construct: V-type proton ATPase subunit C, Manduca sexta; source: purified from M. sexta midgut, as part of the V-ATPase holoenzyme

Assay [3] has as its target T3, Manduca sexta V-ATPase subunit A (Manduca sexta (endogenous in midgut), UniProt P31400 1-617).
T3 construct: V-type proton ATPase catalytic subunit A, Manduca sexta; Three copies in the holoenzyme, (AB)3; source: purified from M. sexta midgut, as part of the V-ATPase holoenzyme

For assay [4], the target named is T4, Manduca sexta V-ATPase subunit B (Manduca sexta (endogenous in midgut), UniProt P31401 1-494).
T4 construct: V-type proton ATPase subunit B, Manduca sexta; Three copies in the holoenzyme, (AB)3; source: purified from M. sexta midgut, as part of the V-ATPase holoenzyme

In assay [5] the target is B1.

T2 sequence (Q9U5N1 whole entry): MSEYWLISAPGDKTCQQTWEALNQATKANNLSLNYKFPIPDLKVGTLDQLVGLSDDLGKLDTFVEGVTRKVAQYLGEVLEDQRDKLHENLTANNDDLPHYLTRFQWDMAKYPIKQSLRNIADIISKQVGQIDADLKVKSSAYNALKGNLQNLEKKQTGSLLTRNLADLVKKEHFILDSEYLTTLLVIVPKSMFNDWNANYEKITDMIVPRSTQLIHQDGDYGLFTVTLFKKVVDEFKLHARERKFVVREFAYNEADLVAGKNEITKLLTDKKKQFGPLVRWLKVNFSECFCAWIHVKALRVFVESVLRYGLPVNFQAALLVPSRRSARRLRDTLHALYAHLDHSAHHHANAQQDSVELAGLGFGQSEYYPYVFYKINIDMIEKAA
T4 sequence (P31401 whole entry): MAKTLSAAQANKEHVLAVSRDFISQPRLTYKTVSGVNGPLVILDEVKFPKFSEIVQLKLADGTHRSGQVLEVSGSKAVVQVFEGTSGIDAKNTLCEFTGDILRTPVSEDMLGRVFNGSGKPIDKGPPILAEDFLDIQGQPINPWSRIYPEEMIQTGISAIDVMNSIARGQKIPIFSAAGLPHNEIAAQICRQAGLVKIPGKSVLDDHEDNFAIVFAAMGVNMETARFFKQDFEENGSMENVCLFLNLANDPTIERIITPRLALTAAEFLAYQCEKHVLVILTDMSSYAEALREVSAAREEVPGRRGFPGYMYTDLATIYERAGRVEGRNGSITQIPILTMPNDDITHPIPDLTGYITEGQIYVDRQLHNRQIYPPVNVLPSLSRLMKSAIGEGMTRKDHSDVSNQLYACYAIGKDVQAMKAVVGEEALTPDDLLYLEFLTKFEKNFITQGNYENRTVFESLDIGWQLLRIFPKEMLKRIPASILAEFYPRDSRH
T3 sequence (P31400 whole entry): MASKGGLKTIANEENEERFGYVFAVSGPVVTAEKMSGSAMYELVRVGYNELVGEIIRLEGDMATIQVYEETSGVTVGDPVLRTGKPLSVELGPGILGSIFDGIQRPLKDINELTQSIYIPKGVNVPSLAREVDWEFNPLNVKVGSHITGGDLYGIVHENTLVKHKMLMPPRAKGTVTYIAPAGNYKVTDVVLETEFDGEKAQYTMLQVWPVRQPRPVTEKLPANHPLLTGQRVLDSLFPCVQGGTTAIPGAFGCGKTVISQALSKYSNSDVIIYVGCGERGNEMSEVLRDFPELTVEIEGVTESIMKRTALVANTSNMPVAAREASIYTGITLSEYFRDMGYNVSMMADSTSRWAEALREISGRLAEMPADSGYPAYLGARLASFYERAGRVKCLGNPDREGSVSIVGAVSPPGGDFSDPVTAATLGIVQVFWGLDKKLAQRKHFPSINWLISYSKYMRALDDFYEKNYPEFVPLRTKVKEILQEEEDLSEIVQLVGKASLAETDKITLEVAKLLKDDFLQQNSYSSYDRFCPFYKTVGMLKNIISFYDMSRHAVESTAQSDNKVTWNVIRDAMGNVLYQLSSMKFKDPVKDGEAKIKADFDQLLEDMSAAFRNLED

Turning to B1, the binding result in assay [1] and in assay [2] was “binds” in each case.

Regarding B2, the binding result in assay [3] and in assay [4] was “binds” each time.

For B3, the binding result in assay [1], in assay [2] and in assay [5] was “binds” in each case.
